Measurements taken from US20080076824A1, “Compounds That Inhibit Replication Of Human Immunodeficiency Virus” (priority 2004, published 2008).

Key:
Type in all cases: biochemical
[1] = substrate: NCC(=O)N1CCC[C@H]1C(=O)NCC(N)=O; test: Conversion of [14C]GPG-NH2 to G-NH2 by fetal bovine serum; settings: other: derived from GPG-NH2 disappearance curves; pH 3.5
Method: (§1) Next, the conversion of radiolabeled [^14C]GPG-NH2 to [^14C]G-NH2 by purified CD26, fetal bovine serum (FBS), human serum (HS) and CEM cell suspensions was analyzed. Radiolabeled [^14C]GPG-NH2 (radiospecificity: 58 mCi/mmol), in which the radiolabeled carbon is located in the main chain carbon of the glycine at the carboxylic acid end of the tripeptide, and [^14C]G-NH2 (radiospecificity: 56 mCi/mmol) in which carbon-2 was radiolabeled were synthesized by Amersham Pharmacia Biotech (Buckinghamshire, England). A variety of these [^14C]GPG-NH2 concentrations were exposed to purified CD26, FBS, HS and CEM cell suspensions and the conversion to G-NH2 was analyzed.
(§2) In another set of experiments, after one hour of exposure, disappearance of intact [^14C]GPG-NH2 was determined by HPLC analysis, as described above, using a cation-exchange Partisphere SCX column and a sodium phosphate buffer gradient at pH 3.5. GPG-NH2 was well-separated from G-NH2 (retention times: 25-27 min and 15-17 min, respectively). […] The GPG-NH2 conversion by the CEM cell suspensions proceeded linearly up to 1.5 mM. Only at higher GPG-NH2 concentrations (e.g., 3 and 5.4 mM), did the conversion curve for the CEM cell suspensions start to level-off slightly.

[2] = substrate: NCC(=O)N1CCC[C@H]1C(=O)NCC(N)=O; test: Conversion of [14C]GPG-NH2 to G-NH2 by human serum; settings: other: derived from GPG-NH2 disappearance curves; pH 3.5
Method: as §1, §2

[3] = substrate: NCC(=O)N1CCC[C@H]1C(=O)NCC(N)=O; test: Conversion of GPG-NH2 to GP-OH and G-NH2 by purified CD26; settings: other: purified CD26; pH 3.5
Method: In some experiments, approximately, 100 μM GPG-NH2 was exposed to 25 units/l of purified CD26 and the mixture was incubated for up to 400 minutes at room temperature. The lymphocyte surface glycoprotein CD26/dipeptidylpeptidase IV was purified as described before. (See De Meester, J. Immunol. Methods, 189:99-105 (1996), herein expressly incorporated by reference in its entirety). At different time points, an aliquot of the reaction mixture was withdrawn and analyzed on an electrospray ion trap mass spectrometer (Esquire, Bruker, Bremen, Germany). The appearance of the dipeptide GP-OH upon release from the amino terminal end of the GPG-NH2 molecule, as well as, the disappearance of intact GPG-NH2 from the reaction mixture was determined and monitored by electrospray ion trap mass spectometric analysis at different time points (See FIG. 3). Under these experimental conditions, CD26 released GP-OH in a time-dependent manner from GPG-NH2, and virtually completely converted GPG-NH2 to GP-OH and G-NH2 within 4 to 6 hrs of the reaction.
Next, the conversion of radiolabeled [^14C]GPG-NH2 to [^14C]G-NH2 by purified CD26, fetal bovine serum (FBS), human serum (HS) and CEM cell suspensions was analyzed. […] A variety of these [^14C]GPG-NH2 concentrations were exposed to purified CD26, FBS, HS and CEM cell suspensions and the conversion to G-NH2 was analyzed. […]

B1: dipeptidylpeptidase activity associated with FBS (Bos taurus) (protein)
chain: SRRTYTLADYLKNTFRMKFYNLRWVSDHEYLYKQENNILLFNAEYGNSSIFLENSTFDEFGHSINDYSVSPDRQYILFEYNYVKQWRHSYTASYDIYDLNKRQLITEERIPNNTQWITWSSVGHKLAYVWNNDIYVKNEPNSPSQRITWTGKKDVIYNGITDWVYEEEVFSAYSALWWSPNSTFLAYAQFNDTEVPLIEYSFYSDESLQYPKTVKIPYPKAGAVNPTIKFFVVNISSLSPNINATSQQIVPPGSVLIGDHYLCDVTWVTEERISLQWLRRIQNYSIMDICDYDRSTGRWISSVGRQHIEISTTGWVGRFRPAEPHFTSDGNSFYKIISNEEGYKHICHFQTDKRNCTFITKGAWEVIGIEALTSDYLYYISNEYKGMPGARNLYKIQLNDYTKVTCLSCELNPDRCQYYSVSFSQEAKYYQLRCSGPGLPLYTLHNSNNDKELRVLENNSDLDQVLQDVQMPSKKLDFIHLHGTKFWYQMILPPHFDKSKKYPLLLEVYAGPCSQKADAIFRLNWATYLASTENIIVASFDGRGSGYQGDKIMHAINRRLGTFEVEDQIEATRQFSKMGFVDDKRIAIWGWSYGGYVTSMVLGAGSGVFKCGIAVAPVSKWEYYDSVYTERYMGLPTPEDNLDSYRNSTVMSRAENFKQVEYLLIHGTADDNVHFQQSAQISKALVDAGVDFQSMWYTDEDHGIASSTAHQHIYTHMSHFLKQCFSLL
notes: from tissue; host or cells: fetal bovine serum
Q: Which Km [1] does the source give for B1 here?
A: 1400 µM

B2: dipeptidylpeptidase activity associated with HS (Homo sapiens) (protein)
chain: SRKTYTLTDYLKNTYRLKLYSLRWISDHEYLYKQENNILVFNAEYGNSSVFLENSTFDEFGHSINDYSISPDGQFILLEYNYVKQWRHSYTASYDIYDLNKRQLITEERIPNNTQWVTWSPVGHKLAYVWNNDIYVKIEPNLPSYRITWTGKEDIIYNGITDWVYEEEVFSAYSALWWSPNGTFLAYAQFNDTEVPLIEYSFYSDESLQYPKTVRVPYPKAGAVNPTVKFFVVNTDSLSSVTNATSIQITAPASMLIGDHYLCDVTWATQERISLQWLRRIQNYSVMDICDYDESSGRWNCLVARQHIEMSTTGWVGRFRPSEPHFTLDGNSFYKIISNEEGYRHICYFQIDKKDCTFITKGTWEVIGIEALTSDYLYYISNEYKGMPGGRNLYKIQLSDYTKVTCLSCELNPERCQYYSVSFSKEAKYYQLRCSGPGLPLYTLHSSVNDKGLRVLEDNSALDKMLQNVQMPSKKLDFIILNETKFWYQMILPPHFDKSKKYPLLLDVYAGPCSQKADTVFRLNWATYLASTENIIVASFDGRGSGYQGDKIMHAINRRLGTFEVEDQIEAARQFSKMGFVDNKRIAIWGWSYGGYVTSMVLGSGSGVFKCGIAVAPVSRWEYYDSVYTERYMGLPTPEDNLDHYRNSTVMSRAENFKQVEYLLIHGTADDNVHFQQSAQISKALVDVGVDFQAMWYTDEDHGIASSTAHQHIYTHMSHFIKQCFSLP
notes: from tissue; host or cells: human serum
Q: How did the Km [2] turn out when B2 was run?
A: 450 µM

B3: CD26/dipeptidylpeptidase IV (Homo sapiens) (protein)
chain: MKTPWKVLLGLLGAAALVTIITVPVVLLNKGTDDATADSRKTYTLTDYLKNTYRLKLYSLRWISDHEYLYKQENNILVFNAEYGNSSVFLENSTFDEFGHSINDYSISPDGQFILLEYNYVKQWRHSYTASYDIYDLNKRQLITEERIPNNTQWVTWSPVGHKLAYVWNNDIYVKIEPNLPSYRITWTGKEDIIYNGITDWVYEEEVFSAYSALWWSPNGTFLAYAQFNDTEVPLIEYSFYSDESLQYPKTVRVPYPKAGAVNPTVKFFVVNTDSLSSVTNATSIQITAPASMLIGDHYLCDVTWATQERISLQWLRRIQNYSVMDICDYDESSGRWNCLVARQHIEMSTTGWVGRFRPSEPHFTLDGNSFYKIISNEEGYRHICYFQIDKKDCTFITKGTWEVIGIEALTSDYLYYISNEYKGMPGGRNLYKIQLSDYTKVTCLSCELNPERCQYYSVSFSKEAKYYQLRCSGPGLPLYTLHSSVNDKGLRVLEDNSALDKMLQNVQMPSKKLDFIILNETKFWYQMILPPHFDKSKKYPLLLDVYAGPCSQKADTVFRLNWATYLASTENIIVASFDGRGSGYQGDKIMHAINRRLGTFEVEDQIEAARQFSKMGFVDNKRIAIWGWSYGGYVTSMVLGSGSGVFKCGIAVAPVSRWEYYDSVYTERYMGLPTPEDNLDHYRNSTVMSRAENFKQVEYLLIHGTADDNVHFQQSAQISKALVDVGVDFQAMWYTDEDHGIASSTAHQHIYTHMSHFIKQCFSLP
notes: made in house; by own knowledge a natural human source (seminal plasma), not recombinant
Q: B3 was tested. Which Km [3] did it give?
A: 183 µM
